# B1: XC_2633P (dsDNA)
# DNA 1: CCGGCTTTATCCAGATCGCCGACCTGCACCCAGGACCCAGCGGCTTGCTGACGCCCTTCAAGGACACACGGATGTGGATAGCGGGGTTCAAGCCCGACGGGAACCGCGACAAGTAACCCGGCCTCCTACTTCCCAATCCCTCTC
# DNA 2: GAGAGGGATTGGGAAGTAGGAGGCCGGGTTACTTGTCGCGGTTCCCGTCGGGCTTGAACCCCGCTATCCACATCCGTGTGTCCTTGAAGGGCGTCAGCAAGCCGCTGGGTCCTGGGTGCAGGTCGGCGATCTGGATAAAGCCGG
# What was measured:
# His6-MBP tag alone = His6-MBP tag alone (UniProt P0AEX9 27-392); assay: EMSA; tag-only control; EMSA buffer not given in the material; Bind-n-seq: 20 mM Tris-HCl pH 8, 1 mM TCEP, 2% glycerol, 1 mM EDTA (binding buffer A) plus MgCl2, BSA and 0-500 mM KCl, room temperature 2 h; details: protein: recombinant; tags: His6-MBP; label: DIG; blunt
# YipR (His6-MBP fusion) = YipR (His6-MBP fusion) (Xanthomonas campestris pv. campestris …, UniProt A0A0H2XAU1 1-344); assay: EMSA; EMSA buffer not given in the material; Bind-n-seq: 20 mM Tris-HCl pH 8, 1 mM TCEP, 2% glycerol, 1 mM EDTA (binding buffer A) plus MgCl2, BSA and 0-500 mM KCl, room temperature 2 h; details: protein: recombinant; tags: His6-MBP; label: DIG; blunt
# Sequence of YipR (His6-MBP fusion) (A0A0H2XAU1 whole entry, the tested form may be a part): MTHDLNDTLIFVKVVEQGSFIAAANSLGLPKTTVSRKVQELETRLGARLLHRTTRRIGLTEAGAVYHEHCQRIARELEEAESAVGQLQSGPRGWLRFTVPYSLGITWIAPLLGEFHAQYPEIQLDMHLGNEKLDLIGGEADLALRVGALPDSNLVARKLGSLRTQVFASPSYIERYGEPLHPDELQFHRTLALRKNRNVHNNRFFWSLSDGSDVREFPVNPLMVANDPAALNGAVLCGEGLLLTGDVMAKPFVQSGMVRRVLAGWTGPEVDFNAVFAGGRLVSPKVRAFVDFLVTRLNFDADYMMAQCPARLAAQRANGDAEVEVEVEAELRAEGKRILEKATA
binder,measurement,setting,value
B1,binding result,His6-MBP tag alone,no binding
same,binding result,YipR (His6-MBP fusion),binds

# — publication PMC6941359, “An improved bind-n-seq strategy to determine protein-DNA interactions validated using the bacterial transcriptional regulator YipR”
